According to the supplement of paper PMC9732359:
± gives the uncertainty stated by the source.

Assay: protein stability index of a GFP-peptide fusion (yeast GPS) (PSI 1-4); higher = more stable; sorted into four equal gates, so the index is relative within each strain
How it was run: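 The protein stability index of a peptide was calculated by multiplying its read frequency in each gate by that gate's number and adding the products. The peptides were tiled 17-residue stretches of yeast proteins, fused downstream of GFP on a Cherry-expressing plasmid and carried in yeast as a pooled library. Mid-log cultures in leucine-free medium were sorted into four equal gates by GFP/Cherry ratio, and each gate's plasmids were PCR-amplified and Illumina-sequenced.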

Sequence | protein stability index (doa10∆) | protein stability index (pdr5∆) | protein stability index (san1∆) | protein stability index (ubr1∆)
LISIHSRENNSEYMVFG [YJL039C/NUP192] | 3.03 ± 0.11 | 2.25 ± 0.13 | 2.77 ± 0.1 | 3.15 ± 0.19
DLLRSQLTSLEKDCSLR [YIL149C/MLP2] | 2.94 ± 0.061 | 3.05 ± 0.063 | 2.33 ± 0.077 | 3.03 ± 0.042
LFPEQQNKEIKAERVED [RPL6A] | 3.61 ± 0.11 | 3.14 ± 0.1 | 3.59 ± 0.065 | 3.35 ± 0.056
FGPHVDVNDVLTKYIRS [GRR1] | 3.3 ± 0.056 | 3.2 ± 0.061 | 3.41 ± 0.046 | 3.29 ± 0.04
PFVLAENMWPFSYQEVE [CDC53] | 1.6 ± 0.037 | 1.9 ± 0.04 | 1.56 ± 0.051 | 2.25 ± 0.028
VFERFKTKILEVAIRDV [IRR1] | 1.77 ± 0.081 | 1.75 ± 0.09 | 1.43 ± 0.14 | 1.67 ± 0.072
SSTIDAPAFHTSGKVEL [SRB8] | 2.9 ± 0.28 | – | 2.94 ± 0.18 | 2.87 ± 0.082
FDIIEESFKGLQPFWFR [ECM29] | 2.63 ± 0.11 | 2.58 ± 0.15 | 2.35 ± 0.17 | 2.21 ± 0.11
TVAHIQYDFKAVLEEND [RPN14] | 1.95 ± 0.12 | 2.72 ± 0.2 | 2.26 ± 0.11 | 2.28 ± 0.24
LKNYVLNELHPTLPTNH [PRP8] | 2.73 ± 0.047 | 3.04 ± 0.054 | 2.53 ± 0.064 | 2.67 ± 0.031
ASLKKMEETEQKKIQIN [SMC3] | 2.33 ± 0.22 | 1.82 ± 0.076 | 3.1 ± 0.13 | 2.23 ± 0.11
ALLRENQDSVKTYALES [RPN2] | 3.35 ± 0.15 | 2.56 ± 0.16 | 2.56 ± 0.12 | 2.94 ± 0.1
RRRDFGAPANKRPRRGL [SMD1] | 2.84 ± 0.094 | 2.93 ± 0.084 | 3.38 ± 0.07 | 3.29 ± 0.089
DESSGTSRIDEEKPGLI [SMC4] | 2.89 ± 0.058 | 3.12 ± 0.047 | 2.94 ± 0.05 | 3.08 ± 0.065
KVKNQGADVTNTTQDNG [YCS4] | 3.17 ± 0.086 | 3.19 ± 0.084 | 3.11 ± 0.049 | 3.2 ± 0.057
GYDDFQEEGSFEFGNMK [FAS2] | 3.48 ± 0.14 | 3.26 ± 0.18 | 2.6 ± 0.28 | 3.33 ± 0.08
RHMVDDKIHARARGPMQ [RPB2] | 3.38 ± 0.17 | 3.48 ± 0.13 | 3.27 ± 0.16 | 2.7 ± 0.16
LSSGESNEIKVTNDLDT [SIR4] | 2.94 ± 0.16 | 2.97 ± 0.12 | 2.88 ± 0.22 | 2.52 ± 0.08
GSRVLIFSQMSRLLDIL [ISW2] | 3.27 ± 0.15 | 3.46 ± 0.11 | 3.18 ± 0.11 | 3.58 ± 0.08
RRFKNGFQTGSASKASA [RPL37A] | 2.99 ± 0.053 | 2.98 ± 0.056 | 3.06 ± 0.067 | 2.88 ± 0.043
AELDLMSGILHCEDKDY [RPN6] | 2.9 ± 0.052 | 3.08 ± 0.047 | 3 ± 0.046 | 3.13 ± 0.038
VVNSNFAKEHNATVNLA [YJR042W/NUP85] | 2.82 ± 0.1 | 2.32 ± 0.12 | 2.75 ± 0.078 | 2.67 ± 0.13
TTRVGGGGAARRQAVDV [RPS5] | 1.61 ± 0.26 | 1.63 ± 0.12 | 1.73 ± 0.28 | 1.82 ± 0.17
LKYHDFLRKATAFNKTR [RPL16B] | 2.98 ± 0.047 | 3.06 ± 0.054 | 2.77 ± 0.053 | 3.08 ± 0.036
AETKSYDSRGVGEMKLL [YLR335W/NUP2] | 1.94 ± 0.064 | 2.1 ± 0.11 | 2.25 ± 0.097 | 2.44 ± 0.079

Sequence | protein stability index (doa10∆) | protein stability index (pdr5∆) | protein stability index (san1∆) | protein stability index (ubr1∆)
EPGVLNTGDGSISTYKD [ECM29] | 3.28 ± 0.15 | 3.22 ± 0.15 | – | –
KPGIPRGNTKIHSMNEN [SIR3] | 3.23 ± 0.2 | 2.9 ± 0.22 | 3.32 ± 0.098 | 3.23 ± 0.12
KERIIRAFLIEEQKIVK [RPL34A] | 3.06 ± 0.082 | 2.26 ± 0.087 | 2.04 ± 0.13 | 2.49 ± 0.066
MYTRLCICSGMLFEMDG [SIN4] | 1.45 ± 0.038 | 1.41 ± 0.038 | 1.48 ± 0.073 | 1.42 ± 0.029
GELLHHPIMETIVNDSN [RPN9] | 2.6 ± 0.053 | 2.77 ± 0.054 | 2.2 ± 0.08 | 2.97 ± 0.078
QNRPYNHPELQGITRNV [RPC17] | 2.06 ± 0.046 | 2.38 ± 0.078 | 2.03 ± 0.087 | 2.17 ± 0.049
KPSPIDSGIGSNGSGIV [CSL4] | 3.17 ± 0.06 | 2.89 ± 0.042 | 2.94 ± 0.04 | 3.1 ± 0.046
QRQKTYVERFETQLKVV [SMC1] | 1.73 ± 0.065 | 2.51 ± 0.08 | 1.23 ± 0.2 | 1.24 ± 0.061
EMLEENFPEASKLSEHL [YCG1] | 2.55 ± 0.28 | 2.29 ± 0.24 | 2.82 ± 0.19 | 2.49 ± 0.15
TTTKIIDSTDHIRKASS [LRP1] | 2.19 ± 0.048 | 2.07 ± 0.039 | 1.64 ± 0.066 | 2.32 ± 0.038
QRETYDSNESDDDVTPS [YLR335W/NUP2] | 1.99 ± 0.1 | 2.43 ± 0.2 | 2.37 ± 0.15 | 2.65 ± 0.18
SRRFKNGFQTGSASKAS [RPL37A] | 2.76 ± 0.075 | 2.73 ± 0.087 | 3.26 ± 0.17 | 2.58 ± 0.055
QQTEHETEIKDLTQLLE [SMC4] | 3.44 ± 0.083 | 3.26 ± 0.048 | 3.31 ± 0.045 | 3.34 ± 0.046
VPYVLMGQIATFIYFAY [COB] | 1.38 ± 0.1 | 1.23 ± 0.1 | 1.17 ± 0.16 | 1.28 ± 0.078
VNGRTKSNTIPVTSIPS [GAL11] | 2.9 ± 0.072 | 2.87 ± 0.11 | 2.99 ± 0.077 | 2.95 ± 0.079
RKHRNAQFAGRASIEYY [DIS3] | 2.99 ± 0.13 | 3.11 ± 0.072 | 2.8 ± 0.13 | 2.99 ± 0.094
MKDKEINIQKYNNNTIR [CSI1] | 2.42 ± 0.22 | 2.4 ± 0.15 | – | 2.52 ± 0.1
AKFRLILIESRIHRLAR [RPS13] | 1.52 ± 0.099 | 1.97 ± 0.18 | 1.7 ± 0.18 | 2.5 ± 0.15
KIGDLGLARKFHNMLQT [SSN3] | 2.9 ± 0.085 | 3.14 ± 0.1 | 3.23 ± 0.058 | 3.37 ± 0.045
TMIKKTTLVTRREELQQ [SMC3] | 2.88 ± 0.13 | 2.94 ± 0.11 | 3.1 ± 0.16 | 2.55 ± 0.18
AEDDVIIPQDILDCVVT [YJR042W/NUP85] | 3.18 ± 0.1 | 3.04 ± 0.065 | 3.36 ± 0.04 | 2.94 ± 0.07
FVMKTRRRKGISTGGFM [SNU114] | 3.44 ± 0.15 | – | – | 3.18 ± 0.11
ELEFIQSLANIQYVTYL [SOH1] | 2.48 ± 0.068 | 2.54 ± 0.053 | 2.71 ± 0.052 | 2.72 ± 0.041
SPLLESDSIEKIVEIDR [PUP2] | 3.48 ± 0.11 | 3.08 ± 0.1 | 2.59 ± 0.15 | 3.49 ± 0.14
TSALSELSGLISSAKLD [QCR2] | 1.69 ± 0.1 | 2 ± 0.083 | 1.7 ± 0.13 | 1.94 ± 0.11
